{"source": "paper PMC6443961", "about": "“Von Willebrand Factor Mediates Pneumococcal Aggregation and Adhesion in Blood Flow” (Frontiers in Microbiology, 2019)", "key": {"[1]": {"target": "recombinant enolase of S. pneumoniae serotype 2 (ATCC 11733) (Streptococcus pneumoniae serotype 2 (ATCC 11733)) (UniProt Q97QS2)", "sequence (Q97QS2 whole entry)": "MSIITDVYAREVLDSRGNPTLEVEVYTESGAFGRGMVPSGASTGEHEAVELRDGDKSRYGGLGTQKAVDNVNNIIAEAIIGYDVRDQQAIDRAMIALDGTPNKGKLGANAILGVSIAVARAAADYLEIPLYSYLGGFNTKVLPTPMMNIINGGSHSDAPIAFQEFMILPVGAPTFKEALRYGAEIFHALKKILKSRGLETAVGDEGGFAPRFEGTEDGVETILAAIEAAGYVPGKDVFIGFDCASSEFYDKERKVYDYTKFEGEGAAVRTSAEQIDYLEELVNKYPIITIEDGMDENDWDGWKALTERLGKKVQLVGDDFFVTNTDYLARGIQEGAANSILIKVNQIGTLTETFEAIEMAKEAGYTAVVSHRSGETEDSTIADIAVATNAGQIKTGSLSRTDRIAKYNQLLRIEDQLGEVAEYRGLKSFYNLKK", "experiment": "SPR; rEno immobilised by amine coupling on CM5 chip (BIAcore T200), VWF or A domains as analyte, PBS pH 7.4 with 0.05% Tween 20, 25°C, 10 μl/min, 1:1 Langmuir model"}, "[2]": {"target": "recombinant enolase protein (rEno) of S. pneumoniae serotype 2 (ATCC 11733) (Streptococcus pneumoniae serotype 2 (ATCC 11733)) (UniProt Q04KG2)", "sequence (Q04KG2 whole entry, the tested form may be a part)": "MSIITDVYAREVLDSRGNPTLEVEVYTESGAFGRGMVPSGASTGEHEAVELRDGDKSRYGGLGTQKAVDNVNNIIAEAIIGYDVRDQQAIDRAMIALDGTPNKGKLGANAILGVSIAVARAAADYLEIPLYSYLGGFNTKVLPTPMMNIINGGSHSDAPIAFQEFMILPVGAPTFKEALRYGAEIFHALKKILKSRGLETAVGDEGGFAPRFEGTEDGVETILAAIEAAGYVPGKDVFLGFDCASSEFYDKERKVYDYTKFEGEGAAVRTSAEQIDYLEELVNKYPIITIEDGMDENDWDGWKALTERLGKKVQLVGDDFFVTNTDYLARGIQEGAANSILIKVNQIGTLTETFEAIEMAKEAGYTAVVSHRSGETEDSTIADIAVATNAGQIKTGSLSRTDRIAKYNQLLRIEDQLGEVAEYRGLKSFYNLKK", "experiment": "SPR; rEno immobilised by amine coupling on CM5 chips (BIAcore T200); PBS pH 7.4 with 0.05% Tween 20, 25°C, 10 µl/min; analytes plasma VWF 0.625-10.0 µg/ml or VWF A1 domain 0.0612-1.0 µg/ml; 1:1 Langmuir model; values of the single independent kinetic runs"}, "[3]": {"target": "T1, human plasma von Willebrand factor (human, UniProt P04275 764-2813)", "T1 construct": "von Willebrand factor, human, derived from plasma; called 'full length VWF' in the SPR methods, as against the single A domains; Glycoprotein from plasma that circulates as multimers; also called VWF; plasma VWF; source: bought: Merck Chemicals (human plasma VWF)", "experiment": "peptide or protein array; 141 overlapping 15mer peptides of enolase (offset three) on cellulose membrane, overlay with 2.0 μg/ml VWF, detected with anti-VWF antibody", "conditions": "both partners purified"}}, "note": "Several values for one entry are separate records, joined by “and”; a condition that tells them apart may be missing. Identical values can stand only once."}
{"molecule": "recombinant VWF domain A1 (domain or fragment)", "values": [{"measurement": "Kd", "setting": "[1]", "result": 0.208, "unit": "nM"}]}
{"molecule": "recombinant VWF domain A1 (from UniProt P04275 23-2813) (domain or fragment)", "values": [{"measurement": "Kd", "setting": "[2]", "result": "2.18 nM and 1.79 nM and 0.585 nM"}, {"measurement": "koff", "setting": "[2]", "result": "0.00126 s⁻¹ and 0.00175 s⁻¹ and 0.0013 s⁻¹"}]}
{"molecule": "YGAEIFHALKKILKS (residues 181-195 of the enolase of S. pneumoniae; one 15mer of the peptide spot array; Synthesised as a spot and held on the cellulose membrane; also called core peptide of region no; source: synthetic peptide, spot on an amino pegylated cellulose membrane)", "note": "[enolase peptide 181YGAEIFHALKKILKS195]", "values": [{"measurement": "binding result", "setting": "[3]", "result": "binds"}]}
